In article PMC2855648 one finds Km, kcat and kcat/Km data, which are given here for one substance.

Broadly, the Km is the substrate concentration at which the rate is half of its maximum. The kcat is the maximal rate divided by the concentration of active sites. By kcat/Km is commonly meant the second-order rate constant that governs catalysis at low substrate concentration.

Holding throughout (assay): initial velocity, spectrophotometric DTP/DTNB thiol assay
Common to all, as to format: biochemical, Escherichia coli

In data set [1] the test system is CC(=O)SCCNC(=O)CCNC(=O)[C@H](O)C(C)(C)COP(=O)(O)OP(=O)(O)OC[C@H]1O[C@@H](n2cnc3c(N)ncnc32)[C@H](O)[C@@H]1OP(=O)(O)O. The following applies: fixed saturating kanamycin B, optimum pH 5.6, room temperature.
The subject of data set [2] is NC[C@@H]1O[C@H](O[C@H]2[C@@H](O)[C@H](O[C@@H]3[C@@H](O)[C@H](N)C[C@H](N)[C@H]3O[C@H]3O[C@H](CN)[C@@H](O)[C@H](O)[C@H]3N)O[C@@H]2CO)[C@H](N)[C@@H](O)[C@@H]1O. The following applies: fixed saturating AcCoA, optimum pH 5.6, room temperature.
Data set [3] has as its system NC[C@H]1O[C@H](O[C@H]2[C@H](O)[C@@H](O[C@H]3O[C@H](CO)[C@@H](O)[C@H](N)[C@H]3O)[C@H](N)C[C@@H]2N)[C@H](N)[C@@H](O)[C@@H]1O. To be noted: fixed saturating AcCoA, optimum pH 5.6, room temperature.

With “AAC(6′)-Ib-wt (Escherichia coli; R102W/Y179D)”, in data set [1], the Km was 35 ± 2 µM, the kcat worked out at 2.32 ± 0.0667 s⁻¹ and the kcat/Km was 66700 M⁻¹ s⁻¹. In data set [2], the Km stood at 20 ± 1 µM, the kcat stood at 3.08 ± 0.05 s⁻¹ and the kcat/Km turned out to be 150000 M⁻¹ s⁻¹. For the same substance, in data set [3], the Km is 0.27 ± 0.01 µM, the kcat is 2.27 ± 0.05 s⁻¹ and the kcat/Km amounted to 8.38e+06 M⁻¹ s⁻¹.
